Results on four molecules are retold here after US10370436B2, “Anti-pseudomonas Psl binding molecules and uses thereof” (priority 2011, dated 2019).

Residue numbers refer to the chain shown, from its start.

Sequences and labels used below:
B1: WapR-001: anti-Psl antibody, VH SEQ ID NO: 5 and VL SEQ ID NO: 6 (antibody, V domains shown)
VH: EVQLLESGGGLVQPGGSLRLSCSASGFTFSRYPMHWVRQAPGKGLEYVSDIGTNGGSTNYADSVKGRFTISRDNSKNTVYLQMSSLRAEDTAVYHCVAGIAAAYGFDVWGQGTMVTVSS
VL: QAGLTQPASVSGSPGQSITISCTGTSSDIATYNYVSWYQQHPGKAPKLMIYEGTKRPSGVSNRFSGSKSGNTASLTISGLQAEDEADYYCSSYARSYTYVFGTGTELTVL
modifications: WapR-001 VH; WapR-001 VL
B2: WapR-007: antibody, VH SEQ ID NO: 13 and VL SEQ ID NO: 14 (antibody, V domains shown)
VH: EVQLVQSGADVKKPGASVRVTCKASGYTFTGHNIHWVRQAPGQGLEWMGWINPDSGATSYAQKFQGRVTMTRDTSITTAYMDLSRLRSDDTAVYYCATDTLLSNHWGQGTLVTVSS
VL: SSELTQDPAVSVALGQTVRITCQGDSLRSYYTNWFQQKPGQAPLLVVYAKNKRPPGIPDRFSGSSSGNTASLTITGAQAEDEADYYCHSRDSSGNHVVFGGGTKLTVL
modifications: WapR-007 VH; WapR-007 VL
B3: WapR-002: anti-Psl antibody, VH SEQ ID NO: 7 and VL SEQ ID NO: 8 (antibody, V domains shown)
VH: QVQLVQSGGGLVQPGGSLRLSCSASGFTFSSYPMHWVRQAPGKGLDYVSDISPNGGSTNYADSVKGRFTISRDNSKNTLFLQMSSLRAEDTAVYYCVMGLVPYGFDIWGQGTLVTVSS
VL: QTVVTQPASVSGSPGQSITISCTGTSSDVGGYNYVSWYQQHPGKAPKLMIYEVSNRPSGVSNHFSGSKSGNTASLTISGLQAEDEADYYCSSYTTSSTYVFGTGTKVTVL
modifications: WapR-002 VH; WapR-002 VL
B4: WapR-003: anti-Psl antibody, VH SEQ ID NO: 9 and VL SEQ ID NO: 10 (antibody, V domains shown)
VH: B3 VH with V2M, S57A, L79V, F80Y, I107N, L113M
VL: QTVVTQPASVSASPGQSITISCAGTSGDVGNYNFVSWYQQHPGKAPKLLIYEGSQRPSGVSNRFSGSRSGNTASLTISGLQAEDEADYYCSSYARSYTYVFGTGTKLTVL
modifications: WapR-003 VH; WapR-003 VL

In one assay the test system is Psl (enriched carbohydrate purified from PAO1ΔwbpL/algD/pelA). In words: Psl capture binding assay (FORTEBIO OCTET 384). To be noted: FIG. 3K. On the set-up: species or system Pseudomonas aeruginosa. The protocol: To confirm that all of the antibodies bound to the same antigen, a Psl capture binding assay was performed using a FORTEBIO® OCTET® 384 instrument as described above. The antigen was proteinase K-treated enriched carbohydrate purified from PAO1ΔwbpL/algD/pelA (O-antigen-, alginate- and Pel exopolysaccharide-deficient). Individual antibodies were bound to aminopropylsilane biosensors followed by blocking and the addition of the enriched carbohydrate antigen. After washing to remove unbound antigen, binding of unlabelled mAbs to captured antigen was assessed.
Turning to B1, the “reactivity of unlabelled mAb to captured Psl” value (shortened to “reactivity of unlabelled mAb”) is recorded as “reacted”.

Take B2: the “reactivity of unlabelled mAb” value was “Minimal reactivity”.

In the case of B3, the “reactivity of unlabelled mAb” value is “reacted”.

As to B4, the “reactivity of unlabelled mAb” value is listed as “reacted”.

The assay is the same for the next values; noted with them: antibody bound to aminopropylsilane biosensors; FIG. 3K.
With B1, the “capture of Psl antigen by biosensor-bound antibody” value is recorded as “capable of capturing antigen”.

B2: the “capture of Psl antigen by biosensor-bound antibody” value is “capable of capturing antigen”.

Take B3: the “capture of Psl antigen by biosensor-bound antibody” value is reported as “capable of capturing antigen”.

For B4, the “capture of Psl antigen by biosensor-bound antibody” value is given as “capable of capturing antigen”.
